# B1: SpsADH (Sphingomonas sp. A1) (protein)
# chain: MFSDLKGKRILITGSTEGIGMATAIELARYGAVVGLNSHVDPADPALLLGKLREAGGDGAFFRADITKTAECQRLVSAFVERFDGIDVLINNAGGLAGRSNLENIDDAFYDRVMDLNGRSVLMMTKFAIPHLRASAKASGTTSAVISTGSIAAREGGGIGAGVYAASKAWLHDIHRNWVKEFTKDSIRFNIVAPGTVDTAFHADKSDELKTRIANSIPMGRFGTVQELAPAYVFFASHAASGYITGQILDVNGGQICP
# notes: full length (258 residues), codon-optimised synthetic gene, N-terminal His6-tag kept (pET-28a), E. coli BL21(DE3), 29 500 Da; NAD+-dependent isoenzyme (printed locus SPH3227 may belong to the NADP+-dependent isoenzyme)
# Columns and labels:
# Assay in all cases: purified protein
# Settings in all cases: oxidation, 1 mM NAD+, 50 mM ammonium bicarbonate pH 7.9, 25 °C
# [1] = substrate: O=C(O)[C@@H](O)[C@@H](O)[C@H](O)[C@H](O)CO
# [2] = substrate: O=C(O)[C@@H](O)[C@H](O)[C@H](O)[C@H](O)CO
# [3] = substrate: O=C(O)[C@H](O)[C@@H](O)[C@H](O)[C@H](O)CO
# [4] = substrate: O=C(O)[C@H](O)[C@H](O)[C@H](O)[C@H](O)CO
# [5] = substrate: O=C(O)C(=O)C[C@H](O)[C@H](O)CO; format: biochemical, Sphingomonas sp. A1
# [6] = substrate: O=C(O)[C@@H](O)[C@@H](O)[C@@H](O)[C@H](O)CO; format: biochemical, Sphingomonas sp. A1
# [7] = substrate: O=C(O)[C@@H](O)[C@@H](O)[C@H](O)CO; format: biochemical, Sphingomonas sp. A1
# [8] = substrate: O=C(O)[C@@H](O)[C@H](O)[C@H](O)CO; format: biochemical, Sphingomonas sp. A1
# [9] = substrate: O=C(O)[C@H](O)[C@@H](O)[C@@H](O)[C@H](O)CO; format: biochemical, Sphingomonas sp. A1
# [10] = substrate: O=C(O)[C@H](O)[C@@H](O)[C@H](O)CO; format: biochemical, Sphingomonas sp. A1
# [11] = substrate: O=C(O)[C@H](O)[C@H](O)[C@H](O)CO; format: biochemical, Sphingomonas sp. A1
# [12] = substrate: OCC(O)CO; format: biochemical, Sphingomonas sp. A1
protein,measurement,setting,value
B1,Km,[1],14 ± 1 mM
same,Vmax,[1],1.1 µmol/min/mg
same,kcat,[1],0.53 s⁻¹
same,kcat/Km,[1],38 M⁻¹ s⁻¹
same,Km,[2],24 ± 4 mM
same,Vmax,[2],0.39 µmol/min/mg
same,kcat,[2],0.19 s⁻¹
same,kcat/Km,[2],8 M⁻¹ s⁻¹
same,Km,[3],12 ± 1 mM
same,Vmax,[3],2 µmol/min/mg
same,kcat,[3],0.98 s⁻¹
same,kcat/Km,[3],82 M⁻¹ s⁻¹
same,Km,[4],16 ± 2 mM
same,Vmax,[4],0.36 µmol/min/mg
same,kcat,[4],0.18 s⁻¹
same,kcat/Km,[4],11 M⁻¹ s⁻¹
same,Km,[5],13 ± 3 mM
same,Vmax,[5],2.8 µmol/min/mg
same,kcat,[5],1.4 ± 0.08 s⁻¹
same,kcat/Km,[5],100 ± 30 M⁻¹ s⁻¹
same,Km,[6],6 ± 1 mM
same,Vmax,[6],0.042 µmol/min/mg
same,kcat,[6],0.021 ± 0.001 s⁻¹
same,kcat/Km,[6],3.4 ± 0.9 M⁻¹ s⁻¹
same,Km,[7],27 ± 2 mM
same,Vmax,[7],0.0086 µmol/min/mg
same,kcat,[7],0.0042 ± 0.0001 s⁻¹
same,kcat/Km,[7],0.16 ± 0.02 M⁻¹ s⁻¹
same,Km,[8],27 ± 3 mM
same,Vmax,[8],0.01 µmol/min/mg
same,kcat,[8],0.0048 ± 0.0001 s⁻¹
same,kcat/Km,[8],0.18 ± 0.02 M⁻¹ s⁻¹
same,Km,[9],50 ± 5 mM
same,Vmax,[9],0.016 µmol/min/mg
same,kcat,[9],0.0079 ± 0.0003 s⁻¹
same,kcat/Km,[9],0.16 ± 0.02 M⁻¹ s⁻¹
same,Km,[10],24 ± 2 mM
same,Vmax,[10],0.066 µmol/min/mg
same,kcat,[10],0.032 ± 0.002 s⁻¹
same,kcat/Km,[10],1.4 ± 0.2 M⁻¹ s⁻¹
same,Km,[11],16 ± 1 mM
same,Vmax,[11],0.01 µmol/min/mg
same,kcat,[11],0.0052 ± 0.0001 s⁻¹
same,kcat/Km,[11],0.33 ± 0.03 M⁻¹ s⁻¹
same,Km,[12],100 ± 10 mM
same,Vmax,[12],0.011 µmol/min/mg
